In experiment [1] the target is purified, soluble huFcRn (human) (UniProt P55899). Nature of the experiment: Biacore (SPR), purified soluble huFcRn. (In general: Surface plasmon resonance follows binding to a sensor surface in real time, without labels.)
In the next experiment the target is FcRn. The experiment in a line: assay not stated; compared with EPO-Fc with native Fc.
The next experiment deals with EPO receptor (EpoR). The experiment in a line: in vitro binding to EpoR; method not stated.

With IgG1 (antibody), the Kd (in general, a measure of binding affinity in units of concentration) in experiment [1] was found to be 8 nM.
With “mutated EPO-Fc (Fc modified in three critical amino acid residues in the Fc domain: I253A, H310A, and H435A) (Fc fusion)”, in the experiment with FcRn, the reduction in FcRn binding was greater than 90%.
“native huEPO (from UniProt P01588 28-193) (ligand)” showed a Kd in the experiment with EPO receptor (EpoR) of 0.2 nM.

For the origin of these results see patent US20040063912A1.
